Measurements from patent US20220282217A1 (BIONTECH US, published 2022).

What was measured:
HLA-A*30:02 = HLA-A*30:02 (human); assay: peptides eluted from HLA-peptide complexes by acid wash, targeted MS/MS (PRM); 293T cells transduced with GATA3 neoORF, expressing HLA-A*30:02
Description: (§1) Between 50 and 700 million of the transduced cells expressing peptides encoded by the GATA3 neoORF sequence were cultured and peptides were eluted from HLA-peptide complexes using an acid wash. Eluted peptides were then analyzed by targeted MS/MS using PRM.

HLA-B*40:02 = HLA-B*40:02 (human); assay: peptides eluted from HLA-peptide complexes by acid wash, targeted MS/MS (PRM); 293T cells transduced with GATA3 neoORF, expressing HLA-B*40:02
Description: as §1

[1] = molecular target: T1, HLA class I molecule A03.01; assay: pMHC-I dissociation half-life, 125I-b2m
T1 construct: Purified MHC class I complex; also called HLA-A03:01
Procedure, shortened: (§2)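 Biotinylated MHC-I heavy chain made in E. coli, captured on streptavidin plates and complexed with peptide and radiolabelled light chain. Dissociation started with excess unlabelled light chain at 37 °C. Stability is the half-life in hours from scintillation counts.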

[2] = molecular target: T1, HLA class I molecule A03.01; assay: competition with radiolabeled reference peptide on purified MHC I
Description: (§3) Peptides were incubated at varying concentrations with these complexes for 2 days, and the amount of remaining radiolabeled peptide bound to […] was measured using size exclusion gel-filtration.

HLA-A24.02 = molecular target: T2, HLA-A24.02 (human); assay: competition with radiolabeled reference peptide, purified MHC I
T2 construct: Purified class I MHC
Description: as §3

HLA-A03.01 [3] = molecular target: T3, HLA-A03.01 (human); assay: competition vs radiolabeled reference peptide on purified MHC I, gel filtration
T3 construct: As for HLA-A02.01
Description: as §3

HLA-A02.01 [4] = molecular target: HLA-A02.01 (human); assay: as above
Description: as §3

HLA-A03.01 [5] = molecular target: T3, HLA-A03.01; assay: pMHC-I complex dissociation at 37 C, 125I-b2m, half-life
Procedure, shortened: as §2

HLA-A02.01 [6] = molecular target: HLA-A02.01 (human); assay: as above
Procedure, shortened: as §2

[7] = molecular target: T4, HLA class I molecule A02.01; assay: competition with radiolabeled reference peptide on purified MHC I
T4 construct: Purified MHC class I complex; also called HLA-A02:01
Description: as §3

[8] = molecular target: T4, HLA class I molecule A02.01; assay: pMHC-I dissociation assay with 125I-labeled beta2m light chain at 37 C, scintillation counts; time in hours for half of the complexes to dissociate
Description: (§4) Briefly, synthetic genes encoding biotinylated MHC-I heavy and light chains are expressed in E. coli and purified from inclusion bodies using standard methods. […] These reactions are carried out in streptavidin coated microplates to bind the biotinylated MHC-I heavy chains to the surface and allow measurement of radiolabeled light chain to monitor complex formation. Dissociation is initiated by addition of higher concentrations of unlabeled light-chain and incubation at 37° C. Stability is defined as the length of time in hours it takes for half of the complexes to dissociate, as measured by scintillation counts.

[9] = molecular target: T5, HLA class I molecule B08.01; assay: pMHC-I dissociation half-life, 125I-b2m
T5 construct: Purified MHC class I complex; also called HLA-B08:01
Procedure, shortened: as §2

[10] = molecular target: T4, HLA class I molecule A02.01; assay: pMHC-I dissociation half-life, 125I-b2m
Procedure, shortened: as §2

[11] = molecular target: T5, HLA class I molecule B08.01; assay: competition with radiolabeled reference peptide on purified MHC I
Description: as §3

[12] = molecular target: T1, HLA class I molecule A03.01; assay: pMHC-I dissociation assay with 125I-labeled beta2m light chain at 37 C, scintillation counts; time in hours for half of the complexes to dissociate
Description: as §4

[13] = molecular target: T6, HLA class I molecule A24.02; assay: pMHC-I dissociation half-life, 125I-b2m
T6 construct: Purified MHC class I complex; also called HLA-A24:02
Procedure, shortened: as §2

[14] = molecular target: T7, HLA class I molecule B07.02; assay: pMHC-I dissociation half-life, 125I-b2m
T7 construct: Purified MHC class I complex; also called HLA-B07:02
Procedure, shortened: as §2

[15] = molecular target: T6, HLA class I molecule A24.02; assay: competition with radiolabeled reference peptide on purified MHC I
Description: as §3

HLA-A01.01 = molecular target: T8, HLA-A01.01 (human); assay: competition with radiolabeled reference peptide, purified MHC I
T8 construct: Purified class I MHC
Description: as §3

HLA-B07.02 [16] = molecular target: T9, HLA-B07.02 (human); assay: competition vs radiolabeled reference peptide on purified MHC I, gel filtration
T9 construct: As for HLA-A02.01
Description: as §3

HLA-A11.01 [17] = molecular target: T10, HLA-A11.01 (human); assay: competition binding assay with purified class I MHC: test peptide at varying concentrations displaces a radiolabeled reference peptide, read by size exclusion gel filtration; column 'Observed MHC Affinity (nM)'
T10 construct: Purified class I MHC
Description: as §3

HLA-A11.01 [18] = molecular target: T10, HLA-A11.01; assay: pMHC-I dissociation assay with 125I-labeled beta2m light chain at 37 C, scintillation counts; time in hours for half of the complexes to dissociate
Description: as §4

[19] = molecular target: T4, HLA class I molecule A02.01; assay: competition binding assay with purified class I MHC: test peptide at varying concentrations displaces a radiolabeled reference peptide, read by size exclusion gel filtration; column 'Observed MHC Affinity (nM)'
Description: as §3

HLA-A03.01 [20] = molecular target: T11, HLA-A03.01 (human); assay: pMHC-I dissociation half-life, 125I-b2m
T11 construct: Purified class I MHC
Procedure, shortened: as §2

HLA-A02.01 [21] = molecular target: T12, HLA-A02.01 (human); assay: pMHC-I dissociation half-life, 125I-b2m
T12 construct: Purified class I MHC
Procedure, shortened: as §2

HLA-B07.02 [22] = molecular target: T13, HLA-B07.02 (human); assay: pMHC-I dissociation half-life, 125I-b2m
T13 construct: Purified class I MHC
Procedure, shortened: as §2

HLA-B08.01 [23] = molecular target: T14, HLA-B08.01 (human); assay: pMHC-I dissociation half-life, 125I-b2m
T14 construct: Purified class I MHC
Procedure, shortened: as §2

HLA-A03.01 [24] = molecular target: T11, HLA-A03.01; assay: competition with radiolabeled reference peptide, purified MHC I
Description: as §3

HLA-B07.02 [25] = molecular target: T13, HLA-B07.02; assay: as above
Description: as §3

HLA-B08.01 [26] = molecular target: T14, HLA-B08.01; assay: as above
Description: as §3

[27] = molecular target: HLA-A11:01 class I MHC molecule (human); assay: competition with a radiolabeled reference peptide for purified MHC I, gel filtration; 'Affinity (nM)'; affinity assay, column 'Affinity (nM)'
Description: as §3

[28] = molecular target: HLA-A03:01 class I MHC molecule (human); assay: competition with a radiolabeled reference peptide for purified MHC I, gel filtration; 'Affinity (nM)'
Description: as §3

[29] = molecular target: HLA-A03:01 class I MHC molecule (human); assay: pMHC-I dissociation at 37 C, 125I-labeled b2m, scintillation counts
Description: as §4

[30] = molecular target: T15, HLA-A01:01 class I MHC molecule (human); assay: as above
T15 construct: heavy chain biotinylated and made in E. coli in the stability assay
Description: as §4

[31] = molecular target: T7, HLA class I molecule B07.02; assay: competition with radiolabeled reference peptide on purified MHC I
Description: as §3

HLA-A11.01 [32] = molecular target: T10, HLA-A11.01; assay: pMHC-I dissociation half-life, 125I-b2m
Procedure, shortened: as §2

[33] = molecular target: HLA-B08:01 class I MHC molecule (human); assay: pMHC-I dissociation at 37 C, 125I-labeled b2m, scintillation counts
Description: as §4

HLA-B07.02 [34] = molecular target: T9, HLA-B07.02; assay: pMHC-I complex dissociation at 37 C, 125I-b2m, half-life
Procedure, shortened: as §2

Binder: SIMKPKRDGY [GATA3 neoORF peptide SIMKPKRDGY]
- binding result (HLA-A*30:02): binds

Binder: AESKIMFAT [GATA3 neoORF peptide AESKIMFAT]
- binding result (HLA-B*40:02): binds

Binder: KVSRENTSPK (also called HER2, L7555)
- Stability (T1/2 (h)) [1]: 13.5 h
- IC50 [2]: 7 nM

Binder: KLRSPLWIF (also called SMAP1(-1))
- IC50 (HLA-A24.02): 828 nM

Binder: KLFSCLSFL (also called C15ORF40(+1))
- IC50 (HLA-A03.01 [3]): 308 nM
- IC50 (HLA-A02.01 [4]): 6 nM
- Stability (T1/2 (h)) (HLA-A03.01 [5]): 0.8 h
- Stability (T1/2 (h)) (HLA-A02.01 [6]): 14.3 h

Binder: IMKPKRDGY [GATA3 neoORF peptide IMKPKRDGY]
- binding result (HLA-A*30:02): binds

Binder: TLQRSSLWCL (also called GATA3 . . ; CSNH)
- IC50 [7]: 118 nM
- Observed MHC Stability [8]: 0.5 h

Binder: YQQQQQSDL (also called MYC, E39D)
- Stability (T1/2 (h)) [9]: 0 h
- Stability (T1/2 (h)) [10]: 0.4 h
- IC50 [11]: 18900 nM
- IC50 [7]: 799 nM

Binder: YMFLKAESK (also called GATA3 . . ; CSNH)
- IC50 [2]: 79.8 nM
- Observed MHC Stability [12]: 0.3 h

Binder: FQMQPLSLM (also called JAK1(-1))
- Stability (T1/2 (h)) [9]: 0 h
- Stability (T1/2 (h)) [13]: 0 h
- Stability (T1/2 (h)) [14]: 0 h
- Stability (T1/2 (h)) [10]: 0.3 h
- IC50 [15]: 14600 nM
- IC50 [7]: 553 nM

Binder: VMSDTTYKIY (also called TTK(-1))
- IC50 (HLA-A01.01): 376 nM

Binder: VPLYGLLLEM (also called ESR1, D538G)
- IC50 (HLA-B07.02 [16]): 27.9 nM

Binder: KIMFATLQR (also called GATA3 . . ; CSNH)
- IC50 (HLA-A11.01 [17]): 23 nM
- IC50 [2]: 2.5 nM
- Observed MHC Stability (HLA-A11.01 [18]): 8.9 h
- Observed MHC Stability [12]: 5.6 h

Binder: SMLTGPPARV (also called GATA3 . . ; CSNH)
- IC50 [19]: 14 nM
- Stability (T1/2 (h)) [10]: 21.7 h

Binder: MSDTTYKIY (also called TTK(-1))
- IC50 (HLA-A01.01): 10.2 nM

Binder: KLMLLRLNL (also called SEC31A(-1))
- Stability (T1/2 (h)) (HLA-A03.01 [20]): 0 h
- Stability (T1/2 (h)) (HLA-A02.01 [21]): 16.9 h
- Stability (T1/2 (h)) (HLA-B07.02 [22]): 1.5 h
- Stability (T1/2 (h)) (HLA-B08.01 [23]): 0 h
- IC50 (HLA-A03.01 [24]): 210 nM
- IC50 (HLA-B07.02 [25]): 133 nM
- IC50 (HLA-B08.01 [26]): 58.4 nM

Binder: MLTGPPARV (also called GATA3 . . ; CSNH)
- IC50 [7]: 10.6 nM
- Observed MHC Stability [8]: 5.8 h

Binder: MANGSLLNY [BTK, C481S peptide MANGSLLNY]
- IC50 [27]: 536 nM
- IC50 [28]: 35.6 nM
- Stability (half-life (hr.)) [29]: 0.238 h
- Stability (half-life (hr.)) [30]: 0.216 h

Binder: ALSASNSCF (also called FRG1B, L52S)
- Stability (T1/2 (h)) [13]: 0.2 h
- Stability (T1/2 (h)) [14]: 0 h
- Stability (T1/2 (h)) [10]: 0.3 h
- IC50 [15]: 16300 nM
- IC50 [31]: 684 nM
- IC50 [7]: 728 nM

Binder: AESKIMFATL [GATA3 neoORF peptide AESKIMFATL]
- binding result (HLA-B*40:02): binds

Binder: VVVGADGVGK (also called KRAS, G12D)
- Measured stability (HLA-A03.01 [20]): 2.3 h
- Measured stability (HLA-A11.01 [32]): 13 h

Binder: VVVGAVGVGK (also called KRAS, G12V)
- Measured stability (HLA-A03.01 [20]): 6.7 h
- Measured stability (HLA-A11.01 [32]): 24.3 h

Binder: MANGSLLNYL [BTK_C481S peptide MANGSLLNYL]
- Stability (half-life (hr.)) [33]: 0 h

Binder: YPAYSKDSGL (also called β2M, . . ; SIRH)
- IC50 (HLA-B07.02 [16]): 79.5 nM

B1: KLSDSRTAL (peptide)
peptide: KLSDSRTAL
notes: also called FRG1B, I1OT (so in the source); FRG1B, I10T
- IC50 (HLA-B07.02 [16]): 9 nM
- Stability (T1/2 (h)) (HLA-A02.01 [6]): 2.8 h
- Stability (T1/2 (h)) (HLA-B07.02 [34]): 6.8 h
